Literature values, collected in patent US11590205B2, “Methods for producing stable therapeutic glucagon formulations in aprotic polar solvents” (Xeris Pharmaceuticals, Inc., priority 2015, dated 2023).

Conditions: aqueous

glucagon
solubility at neutral pH: essentially insoluble
